Assay results from the supplement of paper PMC11865577.

Experiments:
Assay in all cases: pull-down binding Z-score (relative to library population); higher = stronger binding
[1] = test system: G-clamp-N3 (biotin conjugate); conditions: RNA library: Library-1 (pre-miRNA loops + repeats)
Summary of the method: (§1)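 To score binding, a beads-only signal was subtracted, barcoded replicate probes were averaged with the highest and lowest dropped, and the value was converted to a Z-score using the library mean and standard deviation. The input was 1 μg of Cy5- or Cy3-end-labelled RNA library, heat-folded in phosphate/NaCl/KCl buffer and mixed for 60 min at 25 °C with streptavidin beads carrying 100 pmol of biotin-conjugated small molecule. Bound RNA was eluted in hot SDS and hybridised to a DNA barcode microarray at 55.5 °C for 20 h.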

[2] = test system: TO-3-N3 (biotin conjugate); conditions: RNA library: Library-2
Summary of the method: as §1

[3] = test system: TO-N3-2 (biotin conjugate); conditions: RNA library: Library-2
Summary of the method: as §1

[4] = test system: TO-3-N3-2 (biotin conjugate); conditions: RNA library: Library-2
Summary of the method: as §1

[5] = test system: TO-N3 (biotin conjugate); conditions: RNA library: Library-2
Summary of the method: as §1

Sequence | pull-down binding Z-score [1] | pull-down binding Z-score [2] | pull-down binding Z-score [3] | pull-down binding Z-score [4] | pull-down binding Z-score [5]
UGGUUGGUUGGUUGGUUGGUUGGUUGGUUGGU [G4_(UGGU)8] | 0.443 | – | – | – | –
UGGGUUGGGUUGGGUUGGGUUGGGUUGGGU [G4_(UGGGU)6] | 1.62 | – | – | – | –
UGGGUUGGGUUGGGUUGGGUUGGGUUGGGUUGGGUUGGGU [G4_(UGGGU)8] | 0.596 | – | – | – | –
GUACUGGGUCUCUCUGGUUAGACCAGAUCUGAGCCUGGGAGCUCUCUGGCUAACUAGGGAACCCACUGC [HIV_2014_Siegfried_nucs_8982_9173_4] | 0.055 | – | – | – | –
UGGUUGGUUGGUUGGUUGGUUGGU [G4_(UGGU)6] | 1.53 | – | – | – | –
GAACCUUGCUCUUCUGGAACAUACGAGGGCAAUUC | – | 0.401 | -0.153 | -0.0628 | 0.239
GCCACGUAUAAACCAAAUACCUGGUGUAUACGUUGU | – | 0.576 | -0.78 | -0.377 | 0.17
UCGUCAAUAGGGCGA [IAV_invivo_PB2_1_Motif_18+IAV_invivo_PB2_1_Motif_18] | – | -0.228 | -0.56 | -0.184 | -0.554
UUAAGGUGUUUACAACAGUAGACAACAUUAA [DMSMaPseq_invitro_SARS-CoV-2_Motif_93] | – | -1.01 | -1.08 | -0.382 | -1.08
UGUACUUGGAUUGGCUGCAAUCAUGCAAUUGUUUUUCAGCUAUUUUGCAGUACA [SHAPE_invivo_SARS-CoV-2_Motif_149] | – | -0.482 | -0.907 | -0.559 | -0.78
CACUUCUUUCUUUGAGAGAAGUG | – | -0.323 | -1.42 | -0.228 | -0.669
UGAACCACAAAUCA [SHAPE_invitro_SARS-CoV-2_Motif_451] | – | -0.745 | -0.906 | -0.565 | -1.04
UAGGUUUUUCUACAGGUGUUAACCUA [SHAPE_invitro_SARS-CoV-2_Motif_336] | – | -0.603 | -0.856 | -0.426 | -0.981
GAUGUUCUUGUUAACAACUAAACGAACAAUGUUUGUUUUUCUUGUUUUAUUGCCACUAGUCUCUAGUCAGUGUGUUAAUCUUACAACCAGAACUC [DMSMaPseq_invitro_SARS-CoV-2_Multi_63_ComplexLevel_1] | – | 0.637 | -0.457 | 0.256 | 0.534
CCUCUUGAGUGCAUUAAAGACCUUCUAGCACGUGCUGGUAAAGCUUCAUGCACUUUGUCCGAACAACUGGACUUUAUUGACACUAAGAGG [SHAPE_invitro_SARS-CoV-2_Multi_2_ComplexLevel_1] | – | 0.756 | 0.844 | -0.0693 | 0.899
GCACGUAGUGUAGCUAGUCAAUCCAUCAUUGCCUACACUAUGUC | – | 0.288 | 0.486 | 0.0633 | 0.227
ACAACAGGAGUCACCUUUUGU [DMSMaPseq_invitro_SARS-CoV-2_Motif_108] | – | -0.879 | -1.07 | -0.592 | -1.15
GAUUUGUCUUCUACAAUUUGCCUAUGCCAACAGGAAUAGGUUUUUGUAUAUAAUUAAGUUAAUUUUCCUCUGGCUGUUAUGGCCAGUAACUUUAGCUUGUUU | – | -0.15 | -0.904 | -0.102 | -0.372
CGGAUUCUGAAAGAAGAAUCCG [IAV_invivo_NS1_NEP_8_Motif_5+IAV_invivo_NS1_NEP_8_Motif_5] | – | 0.432 | -0.902 | -0.255 | 0.0717
GAAAAUGACUCUAAAGAGGGUUUUUUC [SHAPE_invitro_SARS-CoV-2_Motif_382] | – | -0.0158 | -0.375 | -0.323 | -0.18
CAUUACUUUAUGAUG [SHAPE_invitro_SARS-CoV-2_Motif_468] | – | 0.168 | -1.02 | -0.259 | -0.055

Sequence | pull-down binding Z-score [1] | pull-down binding Z-score [2] | pull-down binding Z-score [3] | pull-down binding Z-score [4] | pull-down binding Z-score [5]
UCUCGUUCACUGGGGA [IAV_invivo_PA_3_Motif_5+IAV_invivo_PA_3_Motif_5] | – | 0.366 | -0.216 | 0.0349 | 0.198
CAUAGAUUAUGACUGUG [SHAPE_invivo_SARS-CoV-2_Motif_206] | – | -0.165 | -0.826 | -0.373 | -0.396
GAGAGUGUUCAGACAUUCUU [SHAPE_invivo_SARS-CoV-2_Motif_44] | – | 0.913 | -0.51 | -0.0995 | 0.718
GCCGCCACUAGAGGAGCUACUGUAGUAAUUGGAACAAGCAAAUUCUAUGGUGGUUGGC | – | 0.361 | 1.24 | 0.675 | 0.89
GAUGUAAUUAUCUUGGCAAACCACGCGAACAAAUAGAUGGUUAUGUC [DMSMaPseq_invitro_SARS-CoV-2_Motif_374] | – | -0.928 | -0.828 | -0.326 | -1.03
CCUGCCUGCCUGCCUG [r(CCUG)4] | – | 0.588 | 0.703 | 0.0557 | 0.872
AUAAACCACCCAUUAGUUUUCCAUUGUGUGCUAAUGGACAAGUUUUUGGUUUAU | – | -0.734 | -1.1 | -0.594 | -1.34
UGCUAACUAAGGGCA | – | 0.877 | -0.388 | -0.0827 | 0.627
CAGGUGACUUUGAUACUUACCUG [U1snRNP5ss-18] | – | -0.734 | -0.978 | -0.615 | -0.974
CUGUAGCUGCAUUUCACCAAGAAUGUAGUUUACAG [DMSMaPseq_invitro_SARS-CoV-2_Motif_500] | – | 0.437 | -0.632 | -0.0203 | 0.121
GGGAGAUUAAUGGUCCU [IAV_invivo_PB2_1_Motif_25+IAV_invivo_PB2_1_Motif_25] | – | 0.341 | 0.225 | 0.00669 | 0.327
GAGUUACACAGAAUGUUCUCUAUGAGAACCAAAAAUUGAUUGCCAACCAAUUUAAUAGUGCUAUUGGCAAAAUUCAAGACUC | – | -0.57 | -0.226 | 0.305 | -0.581
UACAUGUGUUGGUAGCGAUAAUGUUACUGACUUUAAUGCAAUUGCAACAUGUG [DMSMaPseq_invitro_SARS-CoV-2_Multi_49_ComplexLevel_1] | – | -0.662 | -0.909 | 0.0202 | -0.826
UGUCCGUGAUCCACAGACA | – | -0.695 | -0.685 | -0.597 | -0.9
GUUCUUCUUCGUAAGAAC | – | -0.358 | -1.19 | -0.206 | -0.728
UAGUGAUGAAGUUGCGAGAGACUUGUCACUA | – | -0.736 | -0.661 | -0.441 | -0.688
GGAUGGUUACAGGACUAAGGAACAAUCCGUCC [IAV_invivo_HA_4_Motif_14+IAV_invivo_HA_4_Motif_14] | – | -0.461 | -0.0521 | -0.14 | -0.295
GCGCUACUGCAACGAUACCGAUACAAGCCUCACUCCCUUUCGGAUGGCUUAUUGUUGGCGUUGCACUUCUUGCUGUUUUUCAGAGCGC | – | -0.679 | 0.285 | 0.232 | -0.282
GCAGGAGCCUUAAAUAAGGCUACUAACAAUGC | – | 0.214 | -0.521 | -0.0703 | 0.0366
GCUCUACAAGAUGCUUAUUACAGAGC | – | 1.83 | -0.0957 | 0.467 | 1.52
GGCAGACGUGGUCCAGAACAAACCCAAGGAAAUUUUGGGGACCAGGAACUAAUCAGACAAGGAACUGAUUACAAACAUUGGCC | – | 0.608 | 0.614 | 0.536 | 0.753

Sequence | pull-down binding Z-score [1] | pull-down binding Z-score [2] | pull-down binding Z-score [3] | pull-down binding Z-score [4] | pull-down binding Z-score [5]
CUCGUCUAUCUUCUGCAGGCUGCUUACGGUUUCGUCCGUGUUGCAGCCGAUCAUCAGCACAUCUAGGUUUUGUCCGGGUGUGACCGAAAGGUAAGAUGGAGAG | – | -0.827 | -0.32 | -0.563 | -0.836
GGAGUUCAAAUUGCUUCC [IAV_invivo_NP_5_Motif_19+IAV_invivo_NP_5_Motif_19] | – | -0.502 | -0.604 | -0.404 | -0.561
AUGAGGUUUAGAAGAGCUUUUGGUGAAUACAGUCAUGUAGUUGCCUUUAAUACUUUACUAUUCCUUAU | – | -0.216 | -0.689 | 0.205 | -0.296
CAGGCAAUAACAGUUACACCGGAAGCCAAUAUGGAUCAAGAAUCCUUUGGUGGUGCAUCGUGUUGUCUG [SHAPE_invivo_SARS-CoV-2_Motif_250] | – | 0.944 | 0.779 | 0.619 | 1.2
GAAAUUUGACACCUUCAAUGGGGAAUGUCCAAAUUUU [SHAPE_invitro_SARS-CoV-2_Motif_22] | – | -0.726 | -0.988 | -0.434 | -0.92
UGAUAGUCAACAAACUGUUGGUCAACAAGACGGCAGUGAGGACAAUCA | – | 0.68 | -0.167 | 0.241 | 0.595
GGAGGUUGCUAGUCAGGCUAGACAAAUGGUGCAAGCGAUGAGAACCAUUGGAACUCAUCCUAGCUCCAGUGCUGGUCUGAAAAAUGAUCUUC [IAV_invivo_M1_M2_7_Motif_15+IAV_invivo_M1_M2_7_Motif_15] | – | -0.55 | 0.839 | -0.816 | -0.195
GAGUCCUCAUCGGAGGACUU [IAV_invivo_NS1_NEP_8_Motif_11+IAV_invivo_NS1_NEP_8_Motif_11] | – | -0.347 | -1.36 | -0.368 | -0.729
GGGAAAGAAGUCCU [IAV_invivo_HA_4_Motif_8+IAV_invivo_HA_4_Motif_8] | – | -0.398 | -0.872 | -0.278 | -0.705
GAUAACAACUUC [SHAPE_invitro_SARS-CoV-2_Motif_16] | – | 0.519 | -0.77 | 0.0515 | 0.252
AACUACUAUUCAAACAAUUGUUGAGGUUCAACCUCAAUUAGAGAUGGAACUUACACCAGUUGUUCAGACUAUUGAAGUGAAUAGUUUUAGUGGUU | – | -0.295 | -0.981 | -0.609 | -0.383
UAGUUUUAAGGAAUUA | – | -0.826 | -1.56 | -0.519 | -1.1
ACAAGGCUAUUGAUGGUGGUGUCACUCGUGACAUAGCAUCUACAGAUACUUGU [SHAPE_invitro_SARS-CoV-2_Motif_170] | – | -0.355 | -0.052 | -0.287 | -0.449
CGGCGGGCACGUAGUGUAGCUAGUCAAUCCAUCAUUGCCUACACUAUGUCACUUGGUG [SHAPE_invitro_SARS-CoV-2_Motif_429] | – | 0.745 | 1.07 | 0.313 | 1.13
GAGGCUAUGUACACACCGCAUACAGUCUUACAGGCUGUUGGGGCUUGUGUUCUUUGCAAUUC [SHAPE_invitro_SARS-CoV-2_Motif_296] | – | -0.256 | 0.485 | -0.158 | 0.112
AACUGCUUUUGGCUUAGUUGCAGAGUGGUU | – | -0.63 | -0.255 | -0.132 | -0.115
CCUAAACGAACAUGAAAUUUCUUGUUUUCUUAGG | – | -0.979 | -0.729 | -0.593 | -1.08
GUUGUAGACGGUUGUAAUUCAUCAACUUGUAUGAUGUGUUACAAACGUAAUAGAGC [SHAPE_invivo_SARS-CoV-2_Motif_153] | – | -0.547 | -0.564 | -0.153 | -0.562
GUGCUUGGGACAUUUGAUACCGCAC [IAV_invivo_PB2_1_Motif_30+IAV_invivo_PB2_1_Motif_30] | – | -0.258 | 0.571 | -0.147 | -0.171
CCACUUGGCUAUGUAACACAUGGCUUAAAUUUGG [DMSMaPseq_invitro_SARS-CoV-2_Motif_85] | – | 0.386 | -0.575 | -0.0708 | 0.127
UAUGAGGUUUAGAAGAGCUUUUGGUGAAUACAGUCAUGUAGUUGCCUUUAAUACUUUACUAUUCCUUAUG | – | -0.502 | -0.84 | -0.231 | -0.62
